Reference: patent US20240199758A1, “METHOD FOR ALLOWING IMMUNE CELLS INFILTRATION IN TUMORS” (Alethia Biotherapeutics Inc., priority 2021, published 2024)
Entries after “also recorded” stand apart in the source; their conditions may differ.

Key:
E-cadherin = test: Phase I study: immunohistochemistry on paired tumor biopsies, E-cadherin; assay type: in vivo, human
Protocol: (§1) Immunohistochemistry studies were conducted on paired tumor biopsies to determine if the treatment with AB-16B5 was associated with a reacquisition of an epithelial phenotype.

[1] = Phase I study: detection of AB-16B5 in tumor biopsies; assay type: in vivo, human; settings: for Detection of AB-16B5 in Post-Treatment Biopsy: after Cycle 2 Day 15
Source text: (§2) Tumor biopsies were collected during the standard dose escalation to investigate the presence of AB-16B5 within the tumor. A total of 4 pre-treatment and 5 post-treatment tumor biopsies were suitable for analysis. These post-treatment tumor biopsies were collected following dosing on Cycle 2 Day 15 (between Cycle 2 Day 15 and Cycle 2 Day 18). The biopsy sites were liver (n=2), lymph node (n=2), bladder, skin and vulva.

tumor biopsies = test: Phase I study: necrosis in paired tumor biopsies; assay type: in vivo, human
Protocol: as §2, §1

[2] = tested on: frozen tissues from human; test: Tissue cross-reactivity study, human tissues; assay type: binding; settings: human tissue panel, 2 and 10 μg/mL
Protocol: (§3) In addition, a tissue cross-reactivity study was conducted to determine the potential cross-reactivity of AB-16B5 with frozen tissues from human, Rhesus monkey, and Sprague-Dawley rat tissues.

[3] = rhesus monkey, in vivo
[4] = tested on: frozen tissues from Rhesus monkey; test: Tissue cross-reactivity study, Rhesus monkey tissues; assay type: binding; settings: Rhesus monkey tissue panel, 2 and 10 μg/mL
Protocol: as §3

[5] = tested on: frozen Sprague-Dawley rat tissues; test: Tissue cross-reactivity study, Sprague-Dawley rat tissues; assay type: binding; settings: Sprague-Dawley rat tissue panel, 2 and 10 μg/mL
Protocol: as §3

[6] = Subject 012, Breast, biopsy site Skin
[7] = Subject 013, Prostate, biopsy site Bladder

AB-16B5: humanized IgG2 monoclonal antibody targeting sCLU for the inhibition of cancer-associated EMT; light chain SEQ ID NO:11, heavy chain SEQ ID NO:12
E-cadherin Expression in Post-Treatment (E-cadherin; Subject 006, Breast, biopsy site Skin): Increase
E-cadherin Expression in Post-Treatment (E-cadherin; Subject 007, Gastric, biopsy site Gastric): Increase
E-cadherin Expression in Post-Treatment (E-cadherin; [6]): Decrease
E-cadherin Expression in Post-Treatment (E-cadherin; [7]): No change
patients with increased E-cadherin expression after treatment (E-cadherin; paired tumor biopsies): 2 pts
presence of AB-16B5 in post-treatment tumor biopsies ([1]; 5 post-treatment tumor biopsies): confirmed in all post-treatment tumor biopsies analyzed; also recorded: confirmed in all 5 pts
Detection of AB-16B5 in Post-Treatment Biopsy ([1]; Subject 009, Lung, biopsy site Liver): Positive
Detection of AB-16B5 in Post-Treatment Biopsy ([1]; Subject 010, Colorectal, biopsy site Liver): Positive
Detection of AB-16B5 in Post-Treatment Biopsy [1, 6]: Positive
Detection of AB-16B5 in Post-Treatment Biopsy [1, 7]: Positive
Detection of AB-16B5 in Post-Treatment Biopsy ([1]; Subject 015, Ovarian, biopsy site Lymph node): Positive
Necrosis Post-Treatment (tumor biopsies; Subject 006, Breast, biopsy site Skin (pre-treatment 0%)): 10%
Necrosis Post-Treatment (tumor biopsies; Subject 007, Gastric, biopsy site Gastric (pre-treatment 0%)): 0%
Necrosis Post-Treatment (tumor biopsies; Subject 012, Breast, biopsy site Skin (pre-treatment 0%)): 5%
Necrosis Post-Treatment (tumor biopsies; Subject 013, Prostate, biopsy site Bladder (pre-treatment 0%)): 10%
AB-16B5 staining of tissue elements [2]: observed in a number of tissue elements
membrane staining [2]: no membrane staining was observed
emesis during infusion [3]: Few episodes of emesis
signs of overt toxicity [3]: did not result in any signs of overt toxicity
treatment-related effects on body weight, ophthalmology, electrocardiography and organ weight [3]: no treatment-related effects
animals with hepatocellular vacuolation in the liver ([3]; 100 mg/kg): 2 animals
AB-16B5 staining of tissue elements [4]: observed in a number of tissue elements
membrane staining [4]: no membrane staining was observed
AB-16B5 staining of tissue elements [5]: observed in a number of tissue elements
membrane staining [5]: no membrane staining was observed
